The record followed here is article PMC8072242 (Proceedings of the National Academy of Sciences of the …, 2021).

For data set [1], the target named is T1, MsDyP (unencapsulated DyP) (Mycolicibacterium smegmatis, UniProt A0R4G9).
T1 sequence (A0R4G9 1-343): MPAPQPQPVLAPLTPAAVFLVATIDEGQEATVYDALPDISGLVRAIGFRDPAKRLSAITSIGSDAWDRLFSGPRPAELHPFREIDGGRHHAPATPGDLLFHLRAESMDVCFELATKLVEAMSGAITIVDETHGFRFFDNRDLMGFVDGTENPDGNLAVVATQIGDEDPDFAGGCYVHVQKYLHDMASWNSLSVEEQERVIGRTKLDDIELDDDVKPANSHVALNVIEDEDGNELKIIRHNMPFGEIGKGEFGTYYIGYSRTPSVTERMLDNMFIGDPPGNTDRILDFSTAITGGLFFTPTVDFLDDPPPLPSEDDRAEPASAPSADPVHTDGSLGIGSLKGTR
The data set is classed as biochemical.

The data set “cryo-EM structure” deals with the molecule itself. The data set can be described thus: cryo-EM structure.

The stoichiometry N is a count of units in the complex or per binding partner.

For the molecule `Oc1cccc(O)c1O` [pyrogallol], the “peroxidase assay, oxidation monitored at 430 nm” value in data set [1] is “utilizing H2O2 as the electron acceptor and pyrogallol (Sigma P0381-25g) as an electron donor”.

B1: DyP (dye-decolorizing peroxidase), native cargo of the Mycobacterium smegmatis encapsulin (enzyme)
chain: MPAPQPQPVLAPLTPAAVFLVATIDEGQEATVYDALPDISGLVRAIGFRDPAKRLSAITSIGSDAWDRLFSGPRPAELHPFREIDGGRHHAPATPGDLLFHLRAESMDVCFELATKLVEAMSGAITIVDETHGFRFFDNRDLMGFVDGTENPDGNLAVVATQIGDEDPDFAGGCYVHVQKYLHDMASWNSLSVEEQERVIGRTKLDDIELDDDVKPANSHVALNVIEDEDGNELKIIRHNMPFGEIGKGEFGTYYIGYSRTPSVTERMLDNMFIGDPPGNTDRILDFSTAITGGLFFTPTVDFLDDPPPLPSEDDRAEPASAPSADPVHTDGSLGIGSLKGTR
Take B1: the “stoichiometry N” value in the data set “cryo-EM structure” is 12.

B2: CFP-29 (29 kDa culture filtrate protein), encapsulin shell protein of Mycobacterium smegmatis (natural protein)
chain: MNNLYRDLAPITESAWAEIELEATRTFKRHIAGRRVVDVSGPNGPTTASVSTGHLLDVSPPGDGVIAHLRDAKPLVRLRVPFTVARRDIDDVERGSQDSDWDPVKDAAKKLAFVEDRAIFEGYAAASIEGIRSSSSNPALALPDDAREIPDVIAQALSELRLAGVDGPYSVLLSAETYTKVSETTAHGYPIREHINRLVDGEIIWAPAIDGAFVLSTRGGDFDLQLGTDVSIGYLSHDAEVVHLYMEETMTFLCYTAEASVALTP
B2: the “stoichiometry N” value in “cryo-EM structure” stood at 60.
